In article PMC5309953, “IRAV (FLJ11286), an Interferon-Stimulated Gene with Antiviral Activity against Dengue Virus, Interacts with MOV10”:

B1: ssRNA 20-mer (ssRNA)
RNA: AGUUGUUAGUCUACGUGGAC
B2: ssDNA 20-mer (ssDNA)
DNA: AGTTGTTAGTCTACGTGGAC

Target: IRAV (FLJ11286) (UniProt Q9NUL5 1-269)
Assay: fluorescence polarization; FP: oligos in 100 mM KCl, 20 mM HEPES pH 7.4 (heated to 85 C, slow cooled); protein purified in 200 mM NaCl, 20 mM HEPES pH 7.4; assay temperature not stated
Conditions: protein: recombinant; tags: N-terminal His-MBP; label: 3'-FAM; single strand

Chain of IRAV (FLJ11286) (Q9NUL5 1-269): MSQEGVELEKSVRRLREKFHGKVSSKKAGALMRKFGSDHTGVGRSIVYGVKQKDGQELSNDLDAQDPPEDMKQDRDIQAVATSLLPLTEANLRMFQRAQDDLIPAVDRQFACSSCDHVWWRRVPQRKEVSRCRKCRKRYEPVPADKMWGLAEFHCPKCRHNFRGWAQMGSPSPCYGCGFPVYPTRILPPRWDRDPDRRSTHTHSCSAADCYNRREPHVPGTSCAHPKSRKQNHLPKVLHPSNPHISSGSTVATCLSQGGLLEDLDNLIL

Binder	binding result
B1	binds
B2	binds
